Measured values as given in paper PMC3317930, “A Human PrM Antibody That Recognizes a Novel Cryptic Epitope on Dengue E Glycoprotein” (PLoS ONE, 2012).

How the values were obtained:
[1] = target: Dengue 2 (DENV2), whole virus (Dengue virus 2, strain New Guinea C (or …, UniProt P14340, strain)); test: ELISA; settings: both partners purified
[2] = target: Dengue 4 (DENV4) strain H241, whole virus (Dengue virus 4, strain H241, UniProt Q58HT7, strain); test: ELISA; settings: both partners purified
[3] = target: Dengue 1 (DENV1) strain Hawaii, whole virus (Dengue virus 1, strain Hawaii, UniProt B5AGU1, strain); test: ELISA; settings: both partners purified
[4] = target: Dengue 3 (DENV3) strain H87, whole virus (Dengue virus 3, strain H87, UniProt P27915, strain); test: ELISA; settings: both partners purified
[5] = target: T1, envelope (E) protein of DENV3 (Dengue virus 3, strain H87, UniProt P27915); test: Western blot; settings: one partner purified
T1 construct: also called E glycoprotein; source: DENV3-infected Vero cells, in lysate

[6] = target: T2, prM protein of the non-mutated prM-E construct (pCMV-prM-E) (Dengue virus 2 strain New Guinea C, UniProt P14340); test: Western blot; settings: one partner purified
T2 construct: also called prM of pCMV-prM-E; source: HEK293-T cells, transfected, in lysate

prM protein of DENV3 = prM protein of DENV3 (Dengue virus 3, strain H87, UniProt P27915); test: Western blot; settings: one partner purified
[7] = target: T3, envelope (E) protein of DENV4 (Dengue virus 4, strain H241, UniProt Q58HT7); test: Western blot; settings: one partner purified
T3 construct: also called E glycoprotein; source: DENV4-infected Vero cells, in lysate

B1: D29 Fab-IgG (antibody, V domains shown)
VH: QMQLVQSGGGVVQPGRSLRLSCAASGFTFSSYAMHWVRQAPGKGLEWVAGTSYDGSNKYYADSVKGRFTISGDNSKNTVYLQMNSLRAEDTAVYYCARAHSSGWYDAFDIWGQGTTVTVSS
VL: SYVLTQPPSVSVSPGQAASITCSGDKLGDKYAWWYQQKPGQSPVMVIHQDDKRPSGIPERFSGSNSGNTATLTITGTQAMDEADYYCQAWDRTTVVFGGGTKLTVL
notes: source: HEK 293 T cells (Fab from a non-immunized human Fab phage library, converted into human IgG format)
B1 was tested, and the Kd [1] was 0.0869 nM, the Kd [2] was 0.108 nM and the Kd [3] was 0.0905 nM. For the same binder, the Kd [4] was 0.114 nM, the binding result [5] was “binds” and the binding result [6] was “binds”. B1: binds (prM protein of DENV3); binds [7].
